Paper PMC4525488, “Structure-based Mechanistic Insights into Terminal Amide Synthase in Nosiheptide-Represented Thiopeptides Biosynthesis” (Scientific Reports, 2015)

B1: selenomethionine NosA_(1-111) (domain or fragment, UniProt C6FX40 1-111, looked up)
chain: MTEHPAQQLYCTVVLWDLSRSAATVASLRAYLRDHAVDAYTTVPGLRQKTWISSTGPEGEQWGAVYLWDSPEAAYGRPPGVSKVVELIGYRPTERRYYSVEAATEGPAAAA
modifications: selenomethionine in place of methionine (one Met residue at the N-terminal sequence)
notes: NosA, terminal amide synthase of nosiheptide biosynthesis; the crystallised form
B2: full-length NosA (wild type) (enzyme, UniProt C6FX40 1-151, looked up)
chain: MTEHPAQQLYCTVVLWDLSRSAATVASLRAYLRDHAVDAYTTVPGLRQKTWISSTGPEGEQWGAVYLWDSPEAAYGRPPGVSKVVELIGYRPTERRYYSVEAATEGPAAAAAPFGKGLGLAFDPASPEPLTRPQEFVPPGADAFIPSRPPA
notes: NosA, terminal amide synthase of nosiheptide biosynthesis; Cloned in pET28a by NheI and HindIII; also called WT NosA; WT full-length NosA
B3: truncated NosA_(1-111) variant (domain or fragment, UniProt C6FX40 1-111, looked up)
chain: B1 chain
notes: NosA, terminal amide synthase of nosiheptide biosynthesis
B4: C-terminal NosA_(112-151) peptide (peptide, UniProt C6FX40 112-151, looked up)
chain: APFGKGLGLAFDPASPEPLTRPQEFVPPGADAFIPSRPPA
notes: NosA, terminal amide synthase of nosiheptide biosynthesis; Cloned in the pSMT3 vector; source: 15N-labelled in M9 medium for NMR

Key:
[1] = biological target: the molecule itself; test: crystal structure; Se-Met NosA_(1-111), sitting-drop vapor diffusion at 293 K; 0.02 M magnesium chloride hexahydrate, 0.1 M HEPES pH 6.0-9.0, 22% w/v polyacrylic acid 5100; SAD, 2.40 Å
[2] = biological target: the molecule itself; test: SEC; Superdex 75 10/300 GL, 50 mM Tris-HCl pH 7.5, 50 mM NaCl; retention compared with gel filtration markers of 44 kDa and 17 kDa
[3] = biological target: B3; test: ITC; ITC-200, 20 mM Tris-HCl, 150 mM NaCl, pH 7.0, 298 K; who was in the syringe is not told; conditions: both partners purified

Binder	stoichiometry N [2]	also measured
B1		binding result [1]: binds
B2	2	
B3	2	
B4		Kd [3]: 2400 ± 1200 µM
